Reference: US20130150294

Test system: purified recombinant full-length Src from Upstate Biotechnology

purified pig kidney Na+/K+-ATPase (PKE)
Src-mediated tyrosine phosphorylation (commercial kinase assay kit): the Na+/K+-ATPase kept Src in an inactive state, addition of ouabain restored the kinase activity
